From patent US8445240B2, “Termite enzymes and uses thereof for in vitro conversion of lignin-containing materials to fermentable products” (University of Florida Research Foundation, Inc., priority 2009, dated 2013)
Entries after “also recorded” stand apart in the source; their conditions may differ.

Key:
recombinant RfBGluc-1 = experiment: Inhibition of recombinant RfBGluc-1; format: biochemical, Reticulitermes flavipes; details: 25° C., sodium acetate 0.1M pH 7, 2 mM p-nitrophenyl-B-D-glucopyranoside
Description: Assays were conducted at 25° C. in sodium acetate buffer (0.1M, pH 7) using 2 mM p-nitrophenyl-B-D-glucopyranoside as the substrate.

RfLac6 = experiment: Recombinant laccase Lac6 inhibition and enhancement, 2,6-DMP oxidation; format: biochemical, Reticulitermes flavipes; details: 1 mM 2,6-DMP, pH 7.5
Description: Enzyme and inhibitors were pre-incubated 5 min at room temperature on an orbital shaker before adding substrate.

[1] = E. coli-expressed Cell-1 against exoglucanase and β-glucosidase substrates; format: biochemical; details: Ni-purified active fractions
Description: Soluble fractions obtained after 19° C. IPTG induction were subjected to Ni-chromatography for purification. The His-tagged Cell-1 was retained on Ni columns and eluted in a single peak of CMC activity after the introduction of imidazole elution buffer.

[2] = Preliminary stability test of purified recombinant Cell-1; format: physicochemical; details: incubation at 65° C. or 26° C. for 65 hr
Text: An approximately 48 kDa band was present in baculovirus-infected larvae, but absent from uninfected and blank virus controls. Following purification and concentration the recombinant Cell-1 protein migrated as a single band at approximately 48 kDa. […] In addition to endoglucanase activity (the expected activity for Cell-1), exoglucanase and β-glucosidase activities were also investigated using the substrates pNPC and pNPG. All three activities were present in both uninfected and blank-virus-infected T. ni larvae, with exoglucanase and β-glucosidase activity being the strongest. However, only endoglucanase activity remained for purified Cell-1. In agreement with SDS-PAGE results, it was enriched at least 10-fold relative to clarified supernatants of infected larvae.

[3] = Colorimetric β-1,4-endoglucanase assay of Cell-1 on CMC; format: biochemical; details: BEVS-expressed; 100 mM sodium acetate pH 6.5, 25° C.
Description: Colorimetric β-1,4-endoglucanase enzyme assays: Six total substrates were tested: CMC (carboxymethyl cellulose), pNPG (p-nitrophenyl-beta-D-glucopyranoside), pNPC2 (p-nitrophenyl-beta-D-cellobioside), pNPC3 (p-nitrophenyl-beta-D-cellotrioside), pNPC4 (p-nitrophenyl-beta-D-cellotetraoside), and pNPC5 (p-nitrophenyl-beta-D-cellopentaoside). All assay methods were carried out under optimal conditions (Zhou et al., (2007) Gene 395:29-39).
(FIG. 7). For subsequent characterizations, the 1.5% CMC concentration was used. pH studies were performed by dissolving 1.5% CMC in two different buffer systems: 100 mM sodium acetate (pH 3-6.5) and 100 mM sodium phosphate (pH 7-10.5), as shown in FIG. 8. […] Temperature-cofactor studies were performed using 1.5% CMC dissolved in 100 mM sodium phosphate (pH 7) alone, plus 4 mM EDTA (final concentration), or plus 10 mM calcium chloride (final concentration). Pre-incubations took place for 0-5 days at 25° C. or 0-60 min at 60° C. or 70° C.; reactions were terminated by the combination of adding stop solution and boiling for 10 min, and then assays were read at 25° C. (FIG. 9).

[4] = Glucose release from pine sawdust by recombinant enzymes and mixtures; format: biochemical; details: 2% w/v, 18 hrs, 37° C., pH 7
Description: All reactions were performed in 0.1 M sodium acetate buffer containing 10 mM calcium chloride (pH 7). The two feedstock substrates were pine sawdust (=lignin+cellulose+hemicellulose) and beechwood xylan (=lignin+hemicellulose). Feedstocks were tested at 2% w/v (10 mg in 0.5 mL buffer). Reactions were run for 18 hrs at 37° C. with shaking at 220 rpm in vented 1.5 mL plastic tubes.
Protein volumes used per assay were 10 μL of each of the Cell-1, β-glucosidase, and Laccase 6 recombinant protein preparations. These loading volumes provided 8.5, 7.9 and 2.0 μg of each protein, respectively, per reaction. The storage buffer for Cell-1 and β-glucosidase was 0.1 M sodium acetate, 0.15 M sodium chloride, and 0.5 M calcium chloride (pH 5.8). The storage buffer for Laccase 6 was 0.1M boric acid, phosphoric acid, and acetic acid (pH 7.0).
Reactions were stopped after 18 hours by the addition of 10 μL of 0.2 Methylene-diamine tetra-acetic acid and centrifuged for 5 min at 16,000×g. Glucose detection was performed in triplicate on 125 μL aliquots of each reaction supernatant. The entire experiment was replicated three times. Glucose release was measured using the Autokit Glucose reagent kit (Wako Chemical, Richmond, Va.) at a volume of 125 μL per determination. Glucose was quantified based on absorbance at 505 nm relative to glucose standard curves. Standard curves were prepared in eight serial dilutions downward from 0.6 mM in sodium acetate-calcium chloride reaction buffer.

[5] = Lignin alkali metabolism by RfLacA, HPLC analysis; format: biochemical; details: 1% w/v, pH 7.5, 16 hr, 32° C.
[6] = Characterisation of recombinant RfLacA and RfLacB isoforms; format: biochemical

OC[C@@H]1[C@@H](O[C@@H]2O[C@H](CO)[C@@H](O)[C@H](O)[C@H]2O)[C@H](O)[C@@H](O)c2nccn21 [cellobioimidazole (CBI), cellobioimidazole]
inhibition of recombinant RfBGluc-1 (recombinant RfBGluc-1): concentration-dependent inhibition

O=C(O)CN(CCN(CC(=O)O)CC(=O)O)CC(=O)O [EDTA, ethylenediaminetetraacetate]
effect on Cell-1 CMC endoglucanase activity (Cell-1; incubations over a 5-day period at about 25° C.): slightly inhibitory | effect on Cell-1 temperature stability (Cell-1; pre-incubation at 60° C. and 70° C., 0-60 min): rapidly reduced temperature stability; also recorded: reduces temperature stability | effect on RfLac6 activity (RfLac6; at concentrations as low as 0.01 mM): completely inhibited

O=C(O)CS [TGA, thioglycolic acid]
concentration up to which RfLac6 activity is enhanced, inhibitory above (RfLac6): ≤ 10 mM

fluoromethyl cellobiose [fluoromethyl cellobiose (FMCB)]
inhibition of recombinant RfBGluc-1 (recombinant RfBGluc-1): concentration-dependent inhibition

B1: Cell-1: host-derived β-1,4-endoglucanase (GHF9) from Reticulitermes flavipes, SEQ ID NO.: 2; recombinant, BEVS or E. coli expressed (protein)
chain: MKVFVCLLSALALCQAAYDYKTVLSNSLLFYEAQRSGKLPSDQKVTWRKDSALNDKGQKGEDLTGGYYDAGDFVKFGFPMAYTVTVLAWGVIDYESAYSAAGALDSGRKALKYGTDYFLKAHTAANEFYGQVGQGDVDHAYWGRPEDMTMSRPAYKIDTSKPGSDLAAETAAALAATAIAYKSADATYSNNLITHAKQLFDFANNYRGKYSDSITDAKNFYASGDYKDELVWAAAWLYRATNDNTYLTKAESLYNEFGLGNWNGAFNWDNKISGVQVLLAKLTSKQAYKDKVQGYVDYLISSQKKTPKGLVYIDQWGTLRHAANSALIALQAADLGINAATYRAYAKKQIDYALGDGGRSYVVGFGTNPPVRPHHRSSSCPDAPAVCDWNTYNSAGPNAHVLTGALVGGPDSNDSYTDARSDYISNEVATDYNAGFQSAVAGLLKAGV
modifications: Reticulitermes flavipes; amino acid sequence Beta-1,4-endoglucanase (Cell-1)
notes: recombinant, BEVS or E. coli expressed
activity against pNPC and pNPG [1]: no activity | protein stability in purified form [2]: no protein degradation | Km against CMC [3]: 1.496 % w/v | Vmax against CMC [3]: 1.469 pmol/min/mg | glucose release from pine sawdust [4]: 3.70 pmol/min

B2: RfLacA: recombinant R. flavipes gut laccase isoform 1, clone Lac6, SEQ ID NO.: 8 (protein)
chain: LIRLTIGQAVVSTQSTREAVVSTQSTRDTALSVYRSDAYIMLPCVLLACAIGVASATSVLLNSYLQPNDDIDRNTYLLNAKSNNCARICNGTEAPKICYYQWTIENYVTLSEACDNCPLNVTACYNAQCITADGYERSILSVNRKLPGPSIEVCLRDRVIVDITNNMAGRTTSIHWHGVFQKGSQYMDGVPMVTQCTIHEGDTFRYDFIANNEGTHFWHSHDGLQKLDGVTGNLVVRVPKNFDPNGQLYDFDLPEHKIFISDWLHLSADDHFPGLRATNPGQDANSFLINGRGRTLIGTQSTNTPYAQINVQWGRRYRLRIVGSLCTVCPTQLTIDGHKITVIATDGNSVAPARVDSLIIYSGERYDVVLEATNTEGSYWIHLKGLATCVGSRVYQLGVLQYENTTTNKLHALTPDPGYDGFPQPASYRVLNPENASCSIGSTGLCVTQLANSDPVPRDILTQLPDINYLLQFGFETFDSRSFFKAYDRYFVSPFLELLSSTVNNISFVSPPSPLLSQRGDVPDDILCPTGADGLPQCPGGNSYCTCVHVIKIKLGALVQIILSDQSPKSDLNHPFHIHGHAFYVLGMGQYAAGQTAQDLLNSLKSNVSSVSPAPVLKDTVAVPSGGYAIIKFRPKNPGYWFLHCHFLYHVATGMSVVLQVGETSDYPPTPDGFPKCGSFTPPVNTN
modifications: Reticulitermes flavipes; amino acid sequence Laccase Lacc-6
action on lignin alkali [5]: evidence of RfLacA action on lignin | glucose release from pine sawdust (in words) [4]: No glucose release was detectable | oxidation of ABTS and syringaldazine [6]: unable to oxidize
